Where a chain is given by its changes, count along the chain named.
Legend:
[1] = target: T1, SARS-CoV-2 spike protein (nCoV-S Spike Protein Trimer, NIH) (SARS-CoV-2, UniProt P0DTC2 14-1208); assay: HT-SPR (Carterra LSA), mAb on chip, SARS-CoV-2 spike protein titrated, 25 C
T1 construct: also called S protein

[2] = target: T1, SARS-CoV-2 spike protein (nCoV-S Spike …); assay: HT-SPR (Carterra LSA), mAb on chip, SARS-CoV-2 spike protein titrated, 37 C
[3] = target: NCP-CoV (2019-nCoV) Spike Protein (S1 Subunit, His Tag) (SARS-CoV-2, UniProt P0DTC2 16-685); assay: HT-SPR (Carterra LSA), mAb on chip, S1 subunit (His tag) in solution, 25 C
[4] = target: 2019 nCoV Spike Protein (RBD, His tag) (SARS-CoV-2, UniProt P0DTC2 329-520); assay: HT-SPR (Carterra LSA), mAb on chip, RBD (His tag) in solution, 25 C
[5] = target: T2, SARS-CoV-2 full length spike protein (wild type), expressed on the surface of transiently transfected CHO … (SARS-CoV-2, UniProt P0DTC2 14-1273)
[6] = target: T2, SARS-CoV-2 full length spike protein …; assay: flow cytometry, CHO cells with full-length WT SARS-CoV-2 spike
[7] = target: T3, SARS-CoV-2 full length spike protein (wild type) (SARS-CoV-2, UniProt P0DTC2 14-1273); assay: flow cytometry, CHO cells expressing full-length wild-type SARS-CoV-2 spike
T3 construct: also called SARS-CoV-2 spike; S protein

[8] = target: T3, SARS-CoV-2 full length spike protein …
[9] = target: T4, SARS-CoV-2 full length spike protein (wild-type), conjugated to optically encoded beads (SARS-CoV-2, UniProt P0DTC2 14-1208); assay: multiplexed bead flow cytometry, column D
T4 construct: also called SARS-CoV-2 spike (S) protein; full-length trimeric SARS-CoV-2 spike protein

[10] = target: T5, SARS-CoV-2 full length spike protein (wild type) (SARS-CoV-2, UniProt P0DTC2 14-1208); assay: multiplexed bead assay, flow cytometry; column D
T5 construct: also called SARS-CoV-2 spike; S protein

[11] = target: SARS-CoV-2 spike protein on infectious SARS-CoV-2 virus, Italy-INMI1 isolate (SARS-CoV-2, UniProt P0DTC2 14-1273); assay: cell-based or functional assay
[12] = target: T6, SARS-CoV-2 full length spike protein, wild type, expressed on the surface of transiently transfected CHO cells (SARS-CoV-2, UniProt P0DTC2 14-1273); assay: flow cytometry, CHO cells expressing full-length WT spike
T6 construct: also called SARS-CoV-2 spike (S) protein; Wild-Type SARS-CoV-2

B1: antibody 506 (antibody, V domains shown)
VH: QITLKESGPTLVKPTQTLTLTCTFSGFSLSTSGVGVGWIRQPPGKALEWLALIYWDDDKRYSPSLKSRLTITKDTSKNQVVLTMTNMDPVDTATYYCAHHSLSSIFDYWGQGTLVTVSS
VL: QSALTQPASVSGSPGQSITISCTGTSSDVGDYNYVSWYQQHPGKAPKLMIYEVSNRPSGVSNRFSGSKSGNTASLTISGLQAEDEADYYCSSYTSSSTVFGGGTKLTVLG
Binder B1 has a Kd [1] of 0.0491 nM, a Kd [2] of 0.0693 nM and a Kd [3] of 90.9 nM. The Kd [4] was 14.7 nM.

B2: antibody 450 (antibody, V domains shown)
VH: EVQLVESGGGLVQPGGSLRLSCAASEFTFSSYWMSWVRQAPGKGLEWVANIKQDGSEKYYVDSVKGRFTISRDNAKNSLYLQMNSLRAEDTAVYYCARVGEYSGYDLFFDYWGQGTLVTVSS
VL: NFMLTQPHSVSESPGKTVTISYTGSSGSIASNYVQWYQQRPGSAPTTVIYEDNQRPSGVPDRFSGSIDSSSNSASLTISGLKTEDEADYYCQSYDSSNQGVFGGGTKLTVL
In the case of B2, the “median fluorescence intensity, fold over isotype control” value [5] is reported as 0.85 fold over isotype and the binding result [6] is reported as “no binding”.

B3: antibody 292 (antibody, V domains shown)
VH: EVQLVESGGGLIQPGGSLRLSCAASGFTVSSNYMSWVRQAPGKGLEWVSVIYSGGSTYYADSVKGRFTISRDNSKNTLYLQMNSLRAEDTAVYYCARDLQGGGGPWGQGTLVTVSS
VL: AIQMTQSPSSLSASVGDRVTITCRASQGIRNDLGWYQQKPGKAPKLLIYAASSLQSGVPSRFSGSGSGTDFTLTISSLQPEDFATYYCLQDYNYPRTFGQGTKVEIKR
B3 was tested, and the Kd [1] was 0.0608 nM, the Kd [2] was 0.0786 nM and the Kd [3] was 118 nM. It also gave a Kd [4] of 6.78 nM.

B4: antibody 481 (antibody, V domains shown)
VH: B3 VH with Y58F, D98E, L99V, Q100A, G102T, G103Y, G104D, P105Y
VL: DIQMTQSPSSVSASVGDRVTITCRASQGISSWLAWYQQKPGKAPKLLIYAASSLQSGVPSRFSGSGSGTDFTLTISSLQPEDFATYYCQQANSFPGGTFGPGTKVDIKR
In the case of B4, the Kd [1] is reported as 0.118 nM, the Kd [2] is reported as 0.234 nM and the Kd [3] is reported as 170 nM. It also gave a Kd [4] of 14.1 nM.

B5: antibody 434 (antibody, V domains shown)
VH: QVQLVQSGAEVKKPGASVQVSCKASGYTFSDYYIFWVRQAPGQGLEWMGCINPKSGGAIYAQRFQGRVTMTRDTSFNTAYMEMNRLGSDDTAVYYCVTRGPPDIAASGFAWHLDVWGQGTTVTVSS
VL: DIVMTQSPLSLPVTPGEPASISCRSSQSLLSSNGYNYLEWYLQKPGQSPQLLMYLGSNRASGVPDRFSGSGSGTDFTLKINRVEAEDVGVYYCMQALQTPLTFGGGTKVEIK
B5: no binding [6].

B6: antibody 290 (antibody, V domains shown)
VH: QVHLVQSGAEVKKPGASVKVSCAASGYTFNNYGVSWVRQAPGQGLEWMGWISASNGNTKYAQNLQGRVTMTTDTSTSTAYMELRSLRSDDTAVYYCARDLVGPTAPNYYYGMDVWGQGTAVTVSS
VL: QSVLTQPPSVSGAPGQRVTISCTGSSSSIGAGYDVHWYQQLPGTAPKLLIYANSNRPSGVPDRLSGSKSGTSASLAITGLQAEDEADYYCQSYDSSLSGYVFGTGTKVTVL
B6: no binding [7].

B7: antibody 296 (antibody, V domains shown)
VH: EVQLVESGGGLVQPGGSLRLSCAGSGFTLSNYWMTWVRQAPGKGLEWVANINQDASRKYYGDSVKGRFSVSRDNAKNSLYLQMNSLTAEDTGFYYCVREELPSTPGSTWGQGTLVTVSS
VL: QSALTQPASVSGSPGQSITISCTGTSSDIGGYNHVSWYQQHPGKAPKLMIYGVSNRPSGVSDRFSGSKSDNTASLTISGLQAEDEADYYCSSPTSRGNKVFGTGTKVTVL
For B7, the “median fluorescence intensity, fold over isotype control” value [8] was 1.12 fold over isotype and the binding result [7] was “no binding”.

B8: antibody 541 (antibody, V domains shown)
VH: QVQLVQSGAEVKKPGASVKVSCKASGYTFTSYYVHWVRQAPGQSLEWMGVISPSTGSTTYAQNFQGRVTMTRDTSTTTVYMELSSLRSEDTAVYYCARDDYYDSTRYFDLWGRGTLVTVSS
VL: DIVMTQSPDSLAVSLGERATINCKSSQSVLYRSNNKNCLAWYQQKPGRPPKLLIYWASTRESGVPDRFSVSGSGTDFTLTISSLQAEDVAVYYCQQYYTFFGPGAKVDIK
B8: no binding [9].

B9: antibody 351 (antibody, V domains shown)
VH: HVQLVESGGGVVQPGRSLRLSCAASGFISRNYGMEWVRQAPGQGLEWVAGIWYDGSKKYYADSVKGRFTISRDTSKNTLFLQMDSLRAEDTAVFYCATATKTFCGGDCPPGGMDVWGQGTTVTVST
VL: SYVLTQPPSVSVAPGKTAWITCVGNNIESESVHWYQQRPGQAPVLVIYYDSDRPSGIPERFFGSNSGNTATLTISRVEAGDEADYYCQVWDSNSDLMVFGGGTKLTVL
B9: no binding [10].

B10: antibody 474 (antibody, V domains shown)
VH: EVQLVESGGGLVQPGGSLRLSCAASGFTFSSYWMHWVRQAPGKGLVWVSRINSDGSSTSYADSVKGRFTISRDNAKNTLYRQMNSLRAEDTAVYYCALGPLDIVGSYYYYGMDVWGQGTTVTVSS
VL: NFMLTQPHSVSESPGKTVTISCTGSSGSIASNYVQWYQQRPGSAPTTVIYEDNQRPSGVPDRFSGSIDSSSNSASLTISGLKTEDEADYYCQSYDSSNQDVVFGGGTKLTVL
B10: no binding [6].

B11: antibody 443 (antibody, V domains shown)
VH: QMRLEESGPGLVKPSETLSLTCTVAGGSITSSDYFWGWLRQSPGKGLEWIASTYHGGSIQYHPALKSRVTISVDASKNQISLRLSSVTAADTAVYYCARDRGDDGPMGTYYFDHWGQGALVTVSS
VL: QSVLTQPPSVSGAPGQSVTISCAGSSSNIGAGHDVHWYQQIPGTAPKLLICGNTNRPSGVPERFSGSRSGTSASLAITGLQAEDEAVYYCQSYDPSHVFFGTGTKLTVL
B11: no binding [6].

B12: mAb 555 (antibody, V domains shown)
VH: QVQLVQSGAEVKKPGSSVKVSCKASGGTFSNYAISWVRQAPGQGLEWMGRIIPILGIANYAQKFQGRVTITADKSTSTAYMELSSLRSEDTAVYYCARGYYEARHYYYYYAMDVWGQGTAVTVSS
VL: not shown
For B12, the “IC50, live virus neutralization of Italy-INMI1 isolate; Lab 2, plaque reduction” value [11] was 0.05 µg/mL.

B13: antibody 494 (antibody, V domains shown)
VH: EVQLVESGGGLVQPGGSLRLSCAASGFTVSSNYMSWVRQAPGKGLEWVSVIYSGGSTFYADSVKGRFTISRDNSKNTLYLQMNSLRAEDTAVYYCARDSGDQLLDYWGQGTLVTVSS
VL: B4 VL with M4L, S10F, V11L, W32Y, S53T, D70E, A91L, F94Y, G96P, G97F
B13 was tested, and the Kd [1] was 0.0835 nM, the Kd [2] was 0.225 nM and the Kd [3] was 189 nM. It also gave a Kd [4] of 13.5 nM.

B14: antibody 514 (antibody, V domains shown)
VH: EVQLVQSGAEVKKPGATVKISCKVSGYTFTDYYMHWVQQAPGKGLEWMGLVDPEDGETIYAEKFQGRVTITADTSTDTAYMELSSLRSEDTAVYYCATDCKYDILTGHYSAGYYYYGMDVWGQGTTVTVSS
VL: DIQMTQSPSSLSASVGDRVTITCRASQGISNYLAWFQQKPGKAPKSLIYAASSLQSGVPSKFSGSGSGTDFTLTISSLQPEDFATYYCQQYNSYPFTFGGGTKVEIK
B14: no binding [9].

B15: antibody 343 (antibody, V domains shown)
VH: QVQLVESGGDVVQPGTSLRLSCAASGFTFNNYGFHWVRQAPGKGLEWVALISSDGASTHYADSVKGRFTISRDSSVNTLYLQMNSLSLEDTAVYYCATGHCGTTCYYFDYWGQGTLVSVSS
VL: DIQVTQSPSYLSASVGDRVTITCRASQTISTFLQWYQQKVGKAPKLLIYAASTLQSGVPSRFSGSGSGTDFSLTISSLQPEDFATYYCQQSYSAPLSFGGGTKVEIK
B15: no binding [10].

B16: antibody 510 (antibody, V domains shown)
VH: QVQLQESGPGLVKPSQTLSLTCTVSGGSISSGSYYWSWIRQPAGKGLEWIGRIYTSGSTNYNPSLKSRVTISVDTSKNQFSLKLSSVTAADTAVYYCAREGQWLYRFDYWGQGTLVTVSS
VL: QSALTQPASVSGSPGQSITISCTGTSSDVGNYDLVSWYQQHPGKAPKLVIYGVTKRPSGVSNRFSGSKSGNTASLTISGLQAEDEADYYCCSYATGDTSVFGTGTKVTVL
B16: no binding [9].

B17: antibody 432 (antibody, V domains shown)
VH: QVQLQESGPGLVKPSQTLSLTCTVSGGSISSGGYYWNWIRQHPGKGLEWIGYIYDSGSTYYNPSLKSRLTLSIDTSQNQFSLRRTSVTAADTAVYYCARGRQYDYDRTGLQYYFDYWGQGTLVTVSS
VL: EIVLTQSPGTLSLSPGERATLSCRASQSFSSSYLAWYQQKPGQAPRLLIYGASSRATGIPDRFSGSGSGTDFTLTISRLEPEDFAVYYCQQYGTSSLTFGGGTKVEIK
B17: no binding [12].
